Experimental data published in article PMC5548745, “Agonist-induced dimer dissociation as a macromolecular step in G protein-coupled receptor signaling” (Nature Communications, 2017).

B1: FZD6 dimer mutant: D365A, R368A, Y369A triple mutant of FZD6 (protein)
chain: HSLFTCEPITVPRCMKMAYNMTFFPNLMGHYDQSIAAVEMEHFLPLANLECSPNIETFLCKAFVPTCIEQIHVVPPCRKLCEKVYSDCKKLIDTFGIRWPEELECDRLQYCDETVPVTFDPHTEFLGPQKKTEQVQRDIGFWCPRHLKTSGGQGYKFLGIDQCAPPCPNMYFKSDELEFAKSFIGTVSIFCLCATLFTFLTFLIDVRRFRYPERPIIYYSVCYSIVSLMYFIGFLLGDSTACNKADEKLELGDTVVLGSQNKACTVLFMLLYFFTMAGTVWWVILTITWFLAAGRKWSCEAIEQKAVWFHAVAWGTPGFLTVMLLAMNKVEGDNISGVCFVGLYDLAASAAFVLLPLCLCVFVGLSLLLAGIISLNHVRQVIQHDGRNQEKLKKFMIRIGVFSGLYLVPLVTLLGCYVYEQVNRITWEITWVSDHCRQYHIPCPYQAKAKARPELALFMIKYLMTLIVGISAVFWVGSKKTCTEWAGFFKRNRKRDPISESRRVLQESCEFFLKHNSKVKHKKKHYKPSSHKLKVISKSMGTSTGATANHGTSAVAITSHDYLGQETLTEIQTSPETSMREVKADGASTPRLREQDCGEPASPAASISRLSGEQVDGKGQAGSVSESARSEGRISPKSDITDTGLAQSNNLQVPSSSEPSSLKGSTSLLVHPVSGVRKEQGGGCHSDT
modifications: left off: GFP, C-terminal, kept
B2: FZD6-R511C: DVL-biased FZD6 nail dysplasia mutant (protein, UniProt O60353 19-706, looked up, variant R511C)
Frizzled-6: HSLFTCEPITVPRCMKMAYNMTFFPNLMGHYDQSIAAVEMEHFLPLANLECSPNIETFLCKAFVPTCIEQIHVVPPCRKLCEKVYSDCKKLIDTFGIRWPEELECDRLQYCDETVPVTFDPHTEFLGPQKKTEQVQRDIGFWCPRHLKTSGGQGYKFLGIDQCAPPCPNMYFKSDELEFAKSFIGTVSIFCLCATLFTFLTFLIDVRRFRYPERPIIYYSVCYSIVSLMYFIGFLLGDSTACNKADEKLELGDTVVLGSQNKACTVLFMLLYFFTMAGTVWWVILTITWFLAAGRKWSCEAIEQKAVWFHAVAWGTPGFLTVMLLAMNKVEGDNISGVCFVGLYDLDASRYFVLLPLCLCVFVGLSLLLAGIISLNHVRQVIQHDGRNQEKLKKFMIRIGVFSGLYLVPLVTLLGCYVYEQVNRITWEITWVSDHCRQYHIPCPYQAKAKARPELALFMIKYLMTLIVGISAVFWVGSKKTCTEWAGFFKRNCKRDPISESRRVLQESCEFFLKHNSKVKHKKKHYKPSSHKLKVISKSMGTSTGATANHGTSAVAITSHDYLGQETLTEIQTSPETSMREVKADGASTPRLREQDCGEPASPAASISRLSGEQVDGKGQAGSVSESARSEGRISPKSDITDTGLAQSNNLQVPSSSEPSSLKGSTSLLVHPVSGVRKEQGGGCHSDT
modifications: GFP or mCherry tag
notes: DVL-biased FZD6 nail dysplasia mutant

How the values were obtained:
[1] = test system: SNAP-β2-adrenergic receptor; test: SNAP-β2-AR internalization by confocal microscopy; type: cell-based; details: HEK293; isoproterenol 10 µM, 15 min
Experimental: SNAP-FZD6 and SNAP-β2-AR were imaged in living cells using a Zeiss LSM710 equipped with a 40×, 1.2 NA C-Apochromat objective. The cell-impermeable SNAP substrate SNAP-Surface 549 (New England Biolabs) was added (1:1000, 15 min), washed twice in BE buffer and imaged using the 561 nm laser line. SNAP-FZD6 and SNAP-β2-AR were stimulated with 300 ng ml^−1 WNT-5A and 10 µM isoproterenol, respectively, and fluorescence was monitored over time.

FZD6–FZD6 dimer = test: dcFRAP of V5-FZD6-mCherry/FZD6-GFP (FZD6 dimerization); type: cell-based, human; details: HEK293; GFP-tagged mutant with wt V5-FZD6-mCherry; anti-V5/avidin crosslinking
Method in brief: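 Live cells co-expressing V5-FZD6-mCherry and FZD6-GFP, surface V5 tag crosslinked with biotin-anti-V5 plus avidin in BE buffer at RT. Membrane areas photobleached, recovery imaged (488/561 nm) over 100 s; mobile fraction from background/bleach-corrected, pre-bleach-normalized intensity at 85-101 s. Cells with <40% crosslink-induced mobility reduction excluded.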

[2] = test system: ERK1/2 phosphorylation in HEK293 cells; test: P-ERK1/2 immunoblot, HEK293 cells expressing SNAP-FZD6 constructs; type: cell-based
Experimental: Fig. 6 Relationship between FZD6 dimerization and phosphorylation of ERK1/2. a Mouse lung epithelial (MLE-12) cells were stimulated with WNT-5A (300 ng ml^−1) for 0, 2.5, 5, 10, 20 min. Cell lysates were analyzed for P-ERK1/2 and β-actin by immunoblotting. Additional information in Supplementary Fig. 6. b Bar graph summarizes three independent experiments. Densitometry data were normalized to the unstimulated control. […] Additional information in Supplementary Fig. 6. SNAP-FZD6 wt- and SNAP-FZD6 dimer mutant-induced ERK1/2 phosphorylation in the absence e and presence f of the porcupine inhibitor C59 (5 µM, overnight) were probed by immunoblotting for the SNAP-tag, P-ERK1/2, total ERK1/2 and β-actin. g The bar graph summarizes densitometry data of P-ERK1/2 normalized to total ERK1/2 from 6 different experiments. P = 0.0005; F (2, 15) = 13.08. ***P < 0.001. Empty vector transfection was used as mock. h Increasing amounts of plasmid of either SNAP-FZD6 wt or SNAP-FZD6 dimer mutant in the presence of C59 show a dose-dependent increase in P-ERK1/2 only with the dimer mutant. Data from three independent experiments for the dimer mutant were fit to a linear least-squares model (slope = 0.40 ± 0.10; R ^2 = 0.5943) and this line is shown superimposed. […] This dissociation-dependent activation can be evoked by agonist (WNT^high) or mutation of the dimer interface (symbolized by red stars). WNT^low conditions can be achieved in the presence of C59, which reduces FZD6 wt signaling
MLE-12 or HEK293 cells (ATCC) were plated in a 24- or 48-well plate at a density of 100,000 or 50,000 cells/well, respectively. After 24 h, cells were transfected using Lipofectamine 2000 according to the manufacturer’s instructions. Cells were stimulated (24 h post-transfection) with 300 ng ml^−1 recombinant carrier-free WNT-5A (CF WNT-5A; R&D Systems). Stimulation was stopped by the addition of lysis buffer (1% NP-40, 150 mM NaCl, 50 mM Tris/HCl pH 8). Lysates were sonicated and analyzed by 7.5 or 10% Mini-PROTEAN TGX precast polyacrylamide gels (Bio-Rad) and transferred to PVDF membranes using the Trans-Blot Turbo system (Bio-Rad). After blocking with 5% milk or BSA in TBS-T, membranes were incubated with primary antibodies in blocking buffer: mouse anti-β-actin (1:30,000; Sigma #A5441), rabbit anti-FZD6 (1:1000; NovusBio #NBP1-00830), rabbit anti-Phospho-p44/42 MAPK (ERK1/2) (Thr202/Tyr204) (1:1000; Cell Signaling Technology #9101 L), rabbit anti-p44/42 MAPK (ERK1/2) (1:1000; Cell Signaling Technology #9102), rabbit anti-Phospho-C-RAF (Ser338) (1:1000; Cell Signaling Technology #56A6), rabbit anti-SNAP tag (1:1000, New England Biolabs #P9310S), and rabbit anti-HA (1:4000, abcam #ab9110) overnight at 4 °C. Proteins were detected with horseradish peroxidase-conjugated secondary antibodies (goat anti-rabbit and goat anti-mouse (Pierce)) and Clarity Western ECL Blotting Substrate (Bio-Rad). All uncropped immunoblots can be found in the Supplementary Information.

DVL2-GFP = test: dcFRAP with chemical surface crosslinking, FZD6 dimer mutant/DVL2-GFP; type: cell-based; details: inactive state
Experimental: For dual color FRAP experiments, cells grown in four compartment 35 mm glass bottom dishes were washed three times with BE buffer[19] (150 mM NaCl, 2.5 mM KCl, 10 mM HEPES, 12 mM glucose, 0.5 mM CaCl2, and 0.5 mM MgCl2). Then, the cells were incubated at RT for 30 min with biotin-conjugated goat polyclonal anti-V5 antibody (Bethyl) diluted 1:100 in BE buffer supplemented with 2.5% bovine serum albumin. For antibody-mediated cross-linking, avidin was added and incubated for 15 min and washed two times with BE buffer before the experiments were performed. […] Fluorescence was measured pre- and post-bleach using low-intensity illumination for a total time period of 100 s. Average pixel intensity was measured using the ZEN2013 software, corrected for background fluctuations and bleaching artifacts and normalized to pre-bleached intensity. The recovered mobile fraction (F m) was calculated as follows: F m = (I P–I 0)/(I I–I 0), where I I is the initial intensity measured prior to bleaching, I 0 is the immediate fluorescence intensity post-bleaching and I P is intensity value post-bleaching. The mobile fraction was defined by the average of the fluorescence recovery assessed between time 85–101 s (including pre-bleach measurements). […]

[3] = test system: subcellular localization in HEK293 cells; test: co-localization of FZD6-R511C with FZD6 constructs; type: cell-based, human; details: FZD6-R511C with FZD6-mCherry, or FZD6 dimer mutant with FZD6-R511C
Gαi1-GFP = details: cited from earlier work

| Molecule | internalization of SNAP-β2-adrenergic receptor [1] | dimerization by CL-induced decrease of mobile fraction (FZD6–FZD6 dimer) | P-ERK1/2 induction in presence of C59 ([2]; HEK293, C59 5 µM overnight) | slope of P-ERK1/2 vs plasmid amount ([2]; HEK293, C59, linear least-squares, R^2 = 0.5943, three independent experiments) | effect of overexpression on basal P-ERK1/2 without C59 ([2]; serum-starved HEK293, no C59) | assembly with DVL (DVL2-GFP) | subcellular localization on co-expression [3] | assembly with Gαi1/Gαq proteins (Gαi1-GFP) |
| --- | --- | --- | --- | --- | --- | --- | --- | --- |
| CC(C)NCC(O)c1ccc(O)c(O)c1 (stereo not drawn) [isoproterenol] | appearance of numerous endosome-like structures after 15 min | – | – | – | – | – | – | – |
| B1 | – | did not result in a decrease of the mobile fraction of FZD6-GFP | maintained its ability to induce ERK1/2 phosphorylation | 0.40 ± 0.10 | increased basal P-ERK1/2 | retained the ability to interact with the scaffold protein DVL | maintained cell surface localization | – |
| B2 | – | – | – | – | – | – | predominant intracellular localization of both constructs | does not assemble with Gαi1/Gαq proteins |
